The text below walks through data of publication PMC3230378 (The EMBO Journal, 2011).

Test in all cases: SPR
(In general: Surface plasmon resonance follows binding to a sensor surface in real time, without labels.)

Experiment [1] has as its target NGL1-r1 mutant (human NGL1_(LRR–Ig) with the loop I binding region of NGL2) (human) (UniProt Q9HCJ2).
The target in experiment [2] is mouse NGL3_(LRR–Ig) (mouse) (UniProt P0C192).
Experiment [3] has as its target T1, mouse NGL3_(LRR–Ig) (mouse, UniProt P0C192 39-455).
T1 sequence (looked up): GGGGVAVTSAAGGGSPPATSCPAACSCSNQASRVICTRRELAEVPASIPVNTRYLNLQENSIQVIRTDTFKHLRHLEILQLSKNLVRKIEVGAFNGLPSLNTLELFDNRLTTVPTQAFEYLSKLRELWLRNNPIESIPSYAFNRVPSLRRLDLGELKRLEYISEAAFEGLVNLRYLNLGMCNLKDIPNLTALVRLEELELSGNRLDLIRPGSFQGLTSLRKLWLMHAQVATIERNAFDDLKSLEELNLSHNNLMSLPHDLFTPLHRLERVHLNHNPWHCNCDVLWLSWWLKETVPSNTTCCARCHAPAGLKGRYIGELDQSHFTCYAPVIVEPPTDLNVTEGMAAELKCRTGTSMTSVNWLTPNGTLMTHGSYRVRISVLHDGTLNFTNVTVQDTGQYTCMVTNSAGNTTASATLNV

In the case of “human NetrinG1_(Lam–EGF1/4), wild type (domain or fragment)”, the fold decrease of binding against WT NGL1 in experiment [1] is over 10 fold. Besides, the Kd in experiment [2] is over 100 µM.

B1: human NetrinG2_(Lam–EGF1), wild type (domain or fragment, UniProt Q96CW9 18-345, looked up)
chain: DYDICKSWVTTDEGPTWEFYACQPKVMRLKDYVKVKVEPSGITCGDPPERFCSHENPYLCSNECDASNPDLAHPPRLMFDKEEEGLATYWQSITWSRYPSPLEANITLSWNKTVELTDDVVMTFEYGRPTVMVLEKSLDNGRTWQPYQFYAEDCMEAFGMSARRARDMSSSSAHRVLCTEEYSRWAGSKKEKHVRFEVRDRFAIFAGPDLRNMDNLYTRLESAKGLKEFFTLTDLRMRLLRPALGGTYVQRENLYKYFYAISNIEVIGRCKCNLHANLCSMREGSLQCECEHNTTGPDCGKCKKNFRTRSWRAGSYLPLPHGSPNACA
On to B1, for which, in experiment [3], the dissociation constant Kd was over 100 µM.

By Kd is commonly meant the concentration at which binding is half-saturated. The low end stands for tighter binding, the high end for weaker binding.
